The source of these data is US10208087B2, “Peptides” (Hoffmann-La Roche Inc., priority 2014, dated 2019).

The IC50 is the concentration needed to halve the response being measured. Read a high IC50 as weaker potency.

Counter-ions that a name gives are not always drawn. Starred links: 1 amine or outer side, 2 acyl side, 3 side chain; linkers in the order of their positions; H or OH if unused. Non-standard residues stand in square brackets, D forms with d. Residues, ends and D or L forms follow the SMILES beside them. No end group written: not given here. *: point of attachment. Elaidic = elaidic acid acyl on Lys side chain, CCCCCCCC/C=C/CCCCCCCC(=O)*; MetSta(3S,4S) = CSCC[C@H](N[*:1])[C@@H](O)CC(=O)[*:2]; Palmitoleoyl = CCCCCC/C=C\CCCCCCCC(=O)*; Sta = CC(C)C[C@H](N)[C@@H](O)CC(=O)O; Palmitoyl = CCCCCCCCCCCCCCCC(=O)*; PEG4 = NCCOCCOCCOCCOCCC(=O)O; PEG3 = NCCOCCOCCOCCC(=O)O; Nle = CCCC[C@H](N)C(=O)O; Palm = palmityl

The target of experiment [1] is T1, BACE1 (Homo sapiens, UniProt P56817).
T1 construct: Human HEK293 cells which are stably transfected with a vector expressing a cDNA of the human APP wt gene (APP695); endogenous in cells; host or cells: HEK293 cells stably transfected with human APP695 wt
The experiment can be described thus: Cellular Aβ-lowering Assay. In kind it is cell-based. As to conditions: Aβ40 in culture supernatant (ELISA) of human HEK293 cells stably expressing human APP wt (APP695); 18-20 hrs incubation. As for the experimental part: The compounds were investigated in accordance with the test given hereinafter. Cellular Aβ-lowering Assay: Human HEK293 cells which are stably transfected with a vector expressing a cDNA of the human APP wt gene (APP695) were used to assess the potency of the compounds in a cellular assay. […] After blocking of non-specific binding sites with e.g. 1% BSA and washing, the culture supernatants were added in suitable dilutions together with a horseradish peroxidase-coupled Aβ detection antibody (e.g., antibody 4G8, Senetek, Maryland Heights, Mo.) and incubated for 5 to 7 hrs. Subsequently the wells of the microtiter plate were washed extensively with Tris-buffered saline containing 0.05% Tween 20 and the assay was developed with tetramethylbenzidine/H2O2 in citric acid buffer. After stopping the reaction with one volume 1 N H2SO4 the reaction was measured in an ELISA reader at 450 nm wavelength. The concentrations of Aβ in the culture supernatants were calculated from a standard curve obtained with known amounts of pure Aβ peptide.
In general terms: ELISA stands for enzyme-linked immunosorbent assay.

Experiment [2] has as its target BACE1 (UniProt P56817 46-501, limits assumed). The experiment can be described thus: cell-based or functional assay.

BACE1 (UniProt P56817 46-501, limits assumed), sequence (P56817 46-501 limits assumed): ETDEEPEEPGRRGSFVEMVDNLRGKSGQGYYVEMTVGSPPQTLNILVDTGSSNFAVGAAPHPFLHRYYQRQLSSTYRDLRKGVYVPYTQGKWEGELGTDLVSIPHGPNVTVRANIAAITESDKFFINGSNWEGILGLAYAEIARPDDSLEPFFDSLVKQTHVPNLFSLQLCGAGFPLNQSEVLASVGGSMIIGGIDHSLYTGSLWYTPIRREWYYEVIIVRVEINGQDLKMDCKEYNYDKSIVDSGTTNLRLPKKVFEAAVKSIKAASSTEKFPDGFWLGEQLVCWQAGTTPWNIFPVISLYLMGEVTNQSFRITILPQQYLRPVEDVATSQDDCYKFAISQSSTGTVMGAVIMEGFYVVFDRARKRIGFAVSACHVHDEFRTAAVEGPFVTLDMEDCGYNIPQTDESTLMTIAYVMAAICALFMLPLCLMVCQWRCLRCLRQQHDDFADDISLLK
T1 sequence (P56817 46-501): as the sequence (P56817 46-501 limits assumed) above

In experiment [1], `CCCCCCCCCCCCCCCC(=O)NCCCC[C@H](NC(=O)[C@H](Cc1ccccc1)NC(=O)[C@H](CCC(=O)O)NC(=O)[C@H](C)NC(=O)[C@@H](NC(=O)C[C@H](O)[C@H](CC(C)C)NC(=O)[C@H](CC(N)=O)NC(=O)[C@@H](NC(=O)[C@H](CCC(=O)O)NC(=O)CNC(=O)[C@H](CCCC)NC(=O)CNC(=O)[C@H](CC(C)C)NC(=O)[C@@H]1CCCN1C(=O)[C@@H](NC(=O)[C@H](Cc1ccccc1)NC(=O)[C@H](Cc1ccc(O)cc1)NC(=O)[C@@H]1CCCN1C(=O)[C@@H](N)Cc1ccc(O)cc1)[C@@H](C)CC)C(C)C)C(C)C)C(N)=O` [Example 6, Tyr-Pro-Tyr-Phe-Ile-Pro-Leu-Gly-Nle-Gly-Glu-Val-Asn-Sta-Val-Ala-Glu-Phe-Lys(Palmityl)-NH2 x TFA] gave an IC50 of 120 nM. On the same count and under the same terms, for `CCCCCCCCCCCCCCCC(=O)NCCCC[C@H](NC(=O)[C@H](Cc1ccccc1)NC(=O)[C@H](CCC(=O)O)NC(=O)[C@H](C)NC(=O)[C@@H](NC(=O)C[C@H](O)[C@H](CC(C)C)NC(=O)[C@H](CC(N)=O)NC(=O)[C@@H](NC(=O)[C@H](CCC(=O)O)NC(=O)CNC(=O)[C@H](CO)NC(=O)CNC(=O)[C@H](CC(C)C)NC(=O)[C@@H]1CCCN1C(=O)[C@@H](NC(=O)[C@H](Cc1ccccc1)NC(=O)[C@H](Cc1ccc(O)cc1)NC(=O)[C@@H]1CCCN1C(=O)[C@@H](N)Cc1ccc(O)cc1)[C@@H](C)CC)C(C)C)C(C)C)C(N)=O` [Example 9, Tyr-Pro-Tyr-Phe-Ile-Pro-Leu-Gly-Ser-Gly-Glu-Val-Asn-Sta-Val-Ala-Glu-Phe-Lys(Palmityl)-NH2 x TFA] (H-YPYFIPLGSGEVN[Sta]VAEFK(Palmitoyl)-NH2; N-terminus assumed) the value was 41 nM; for `CCCCCCCCCCCCCCCC(=O)NCCCC[C@H](NC(=O)[C@@H](Cc1ccccc1)NC(=O)[C@H](CCC(=O)O)NC(=O)[C@H](C)NC(=O)[C@@H](NC(=O)C[C@H](O)[C@H](CCSC)NC(=O)[C@H](CC(N)=O)NC(=O)[C@@H](NC(=O)[C@H](CCC(=O)O)NC(=O)CCOCCOCCOCCNC(=O)[C@H](CC(C)C)NC(=O)[C@@H]1CCCN1C(=O)[C@@H](NC(=O)[C@H](Cc1ccccc1)NC(=O)[C@H](Cc1ccc(O)cc1)NC(=O)[C@@H]1CCCN1C(=O)[C@@H](N)Cc1ccc(O)cc1)[C@@H](C)CC)C(C)C)C(C)C)C(N)=O` [Example 33, Tyr-Pro-Tyr-Phe-Ile-Pro-Leu-(PEG)3-Glu-Val-Asn-MetSta-Val-Ala-Glu-DPhe-Lys(Palm)-NH2 x TFA] (H-YPYFIPL[PEG3]EVN[MetSta(3S,4S)]VAE[dF]K(Palmitoyl)-NH2; N-terminus assumed), 41 nM.

B1: YPKFIPL-GkG-EVN-Sta-VAEp-K(Myristoleic)-NH2 x 3TFA (peptide)
peptide: YPKFIPLG[dK]GEVN[Sta]VAE[dP]K(Myristoleic)-NH2
modifications: also: 3TFA salt
On to B1, for which the “IC50, cellular Aβ-lowering assay (Aβ40 in supernatant of HEK293 cells expressing human APP695)” value (“IC50, cellular Aβ-lowering assay” for short) in experiment [2] stood at 208 nM.

B2: YPKFIPL-GkG-EVN-Sta-VAEp-K(Oleic)-NH2 x 3TFA (peptide)
peptide: YPKFIPLG[dK]GEVN[Sta]VAE[dP]K(Oleic)-NH2
modifications: also: 3TFA salt
Consider B2, for which, in experiment [2], the “IC50, cellular Aβ-lowering assay” value worked out at 6.02 nM.

B3: YPKFIPL-GkG-EVN-Sta-VAEp-K(Palmitoleic)-NH2 x 3TFA (peptide)
peptide: YPKFIPLG[dK]GEVN[Sta]VAE[dP]K(Palmitoleoyl)-NH2
modifications: also: 3TFA salt
Turning to B3, the “IC50, cellular Aβ-lowering assay” value in experiment [2] worked out at 19.9 nM.

B4: YPYFIPL-GpG-EVN-Sta-VAEFK(Palm)-NH2 x TFA (peptide)
peptide: YPYFIPLG[dP]GEVN[Sta]VAEFK(Palm)-NH2
modifications: also: TFA salt
Turning to B4, in experiment [2], the “IC50, cellular Aβ-lowering assay” value turned out to be 48 nM.

B5: YPYFIPL-G-Nle-G-EVN-Sta-VAEFK(Palm)-NH2 x TFA (peptide)
peptide: YPYFIPLG[Nle]GEVN[Sta]VAEFK(Palm)-NH2
modifications: also: TFA salt
With B5, the “IC50, cellular Aβ-lowering assay” value in experiment [2] came out at 120 nM.

B6: YPYFIPL-Gak-EVN-Sta-VAEFK(Palm)-NH2 x TFA (peptide)
peptide: YPYFIPLG[dA][dK]EVN[Sta]VAEFK(Palm)-NH2
modifications: also: TFA salt
With B6, the “IC50, cellular Aβ-lowering assay” value in experiment [2] was found to be 98 nM.

B7: YPYFIPL-GGS-EVN-Sta-VAEFK(Palm)-NH2 x TFA (peptide)
peptide: YPYFIPLGGSEVN[Sta]VAEFK(Palm)-NH2
modifications: also: TFA salt
Regarding B7, the “IC50, cellular Aβ-lowering assay” value in experiment [2] stood at 53 nM.

B8: YPKFIPL-GkG-EVN-Sta-VAEp-K(Palm)-NH2 x 3TFA (peptide)
peptide: YPKFIPLG[dK]GEVN[Sta]VAE[dP]K(Palm)-NH2
modifications: also: 3TFA salt
For the molecule B8, the “IC50, cellular Aβ-lowering assay” value in experiment [2] turned out to be 1.37 nM.

B9: YPYFIPL-PEG(3)-EVN-MetSta-VAE-DPhe-K(Palm)-NH2 x TFA (peptide)
peptide: YPYFIPL[PEG3]EVN[MetSta(3S,4S)]VAE[dF]K(Palm)-NH2
modifications: also: TFA salt
B9: the “IC50, cellular Aβ-lowering assay” value in experiment [2] was found to be 41 nM.

B10: YPYFIPL-GPG-EVN-Sta-VAEFK(Palm)-NH2 x TFA (peptide)
peptide: YPYFIPLGPGEVN[Sta]VAEFK(Palm)-NH2
modifications: also: TFA salt
Regarding B10, the “IC50, cellular Aβ-lowering assay” value in experiment [2] was determined as 140 nM.

B11: YPYFIPL-GSG-EVN-Sta-VAEFK(Palm)-NH2 x TFA (peptide)
peptide: YPYFIPLGSGEVN[Sta]VAEFK(Palm)-NH2
modifications: also: TFA salt
For B11, the “IC50, cellular Aβ-lowering assay” value in experiment [2] was found to be 41 nM.

B12: YPYFIPL-GkG-EVN-Sta-VAEFK(Palm)-NH2 x TFA (peptide)
peptide: YPYFIPLG[dK]GEVN[Sta]VAEFK(Palm)-NH2
modifications: also: TFA salt
For the molecule B12, the “IC50, cellular Aβ-lowering assay” value in experiment [2] stood at 64 nM.

B13: YPKFIPL-GkG-EVN-Sta-VAEp-K(Elaidic)-NH2 x 3TFA (peptide)
peptide: YPKFIPLG[dK]GEVN[Sta]VAE[dP]K(Elaidic)-NH2
modifications: also: 3TFA salt
In the case of B13, in experiment [2], the “IC50, cellular Aβ-lowering assay” value was found to be 3.02 nM.

B14: YPYFIPL-PEG(4)-EVN-MetSta-VAE-DPhe-K(Palm)-NH2 x TFA (peptide)
peptide: YPYFIPL[PEG4]EVN[MetSta(3S,4S)]VAE[dF]K(Palm)-NH2
modifications: also: TFA salt
With B14, in experiment [2], the “IC50, cellular Aβ-lowering assay” value was 18 nM.

B15: YPYFIPL-AGG-EVN-Sta-VAEFK(Palm)-NH2 x TFA (peptide)
peptide: YPYFIPLAGGEVN[Sta]VAEFK(Palm)-NH2
modifications: also: TFA salt
Consider B15, for which the “IC50, cellular Aβ-lowering assay” value in experiment [2] turned out to be 53 nM.

B16: YPKFIPL-GkG-EVN-Sta-VAEp-K(Vaccenic)-NH2 x 3TFA (peptide)
peptide: YPKFIPLG[dK]GEVN[Sta]VAE[dP]K(Vaccenic)-NH2
modifications: also: 3TFA salt
As to B16, the “IC50, cellular Aβ-lowering assay” value in experiment [2] turned out to be 2.68 nM.

B17: YPYFIPL-GGG-EVN-Sta-VAEFK(Palm)-NH2 x TFA (peptide)
peptide: YPYFIPLGGGEVN[Sta]VAEFK(Palm)-NH2
modifications: also: TFA salt
For the molecule B17, the “IC50, cellular Aβ-lowering assay” value in experiment [2] was found to be 120 nM.

B18: YPKFIPL-GkG-EVN-Sta-VAEp-K(Erucic)-NH2 x 3TFA (peptide)
peptide: YPKFIPLG[dK]GEVN[Sta]VAE[dP]K(Erucic)-NH2
modifications: also: 3TFA salt
For B18, the “IC50, cellular Aβ-lowering assay” value in experiment [2] turned out to be 1.15 nM.
